From IntAct's records for PubMed 39009827

B1: Epithelial sodium channel subunit beta (Homo sapiens), P51168 (parent)
chain: MHVKKYLLKGLHRLQKGPGYTYKELLVWYCDNTNTHGPKRIICEGPKKKAMWFLLTLLFAALVCWQWGIFIRTYLSWEVSVSLSVGFKTMDFPAVTICNASPFKYSKIKHLLKDLDELMEAVLERILAPELSHANATRNLNFSIWNHTPLVLIDERNPHHPMVLDLFGDNHNGLTSSSASEKICNAHGCKMAMRLCSLNRTQCTFRNFTSATQALTEWYILQATNIFAQVPQQELVEMSYPGEQMILACLFGAEPCNYRNFTSIFYPHYGNCYIFNWGMTEKALPSANPGTEFGLKLILDIGQEDYVPFLASTAGVRLMLHEQRSYPFIRDEGIYAMSGTETSIGVLVDKLQRMGEPYSPCTVNGSEVPVQNFYSDYNTTYSIQACLRSCFQDHMIRNCNCGHYLYPLPRGEKYCNNRDFPDWAHCYSDLQMSVAQRETCIGMCKESCNDTQYKMTISMADWPSEASEDWIFHVLSQERDQSTNITLSRKGIVKLNIYFQEFNYRTIEESAANNIVWLLSNLGGQFGFWMGGSVLCLIEFGEIIIDFVWITIIKLVALAKSLRQRRAQASYAGPPPTVAELVEAHTNFGFQPDTAPRSPNTGPYPSEQALPIPGTPPPNYDSLRLQPLDVIESDSEGDAI
B2: LIM domain-binding protein 3 (Homo sapiens), O75112 (parent)
chain: MSYSVTLTGPGPWGFRLQGGKDFNMPLTISRITPGSKAAQSQLSQGDLVVAIDGVNTDTMTHLEAQNKIKSASYNLSLTLQKSKRPIPISTTAPPVQTPLPVIPHQKDPALDTNGSLVAPSPSPEARASPGTPGTPELRPTFSPAFSRPSAFSSLAEASDPGPPRASLRAKTSPEGARDLLGPKALPGSSQPRQYNNPIGLYSAETLREMAQMYQMSLRGKASGVGLPGGSLPIKDLAVDSASPVYQAVIKSQNKPEDEADEWARRSSNLQSRSFRILAQMTGTEFMQDPDEEALRRSSTPIEHAPVCTSQATTPLLPASAQPPAAASPSAASPPLATAAAHTAIASASTTAPASSPADSPRPQASSYSPAVAASSAPATHTSYSEGPAAPAPKPRVVTTASIRPSVYQPVPASTYSPSPGANYSPTPYTPSPAPAYTPSPAPAYTPSPVPTYTPSPAPAYTPSPAPNYNPAPSVAYSGGPAEPASRPPWVTDDSFSQKFAPGKSTTSISKQTLPRGGPAYTPAGPQVPPLARGTVQRAERFPASSRTPLCGHCNNVIRGPFLVAMGRSWHPEEFTCAYCKTSLADVCFVEEQNNVYCERCYEQFFAPLCAKCNTKIMGEVMHALRQTWHTTCFVCAACKKPFGNSLFHMEDGEPYCEKDYINLFSTKCHGCDFPVEAGDKFIEALGHTWHDTCFICAVCHVNLEGQPFYSKKDRPLCKKHAHTINL
B3: ATP-binding cassette sub-family C member 6 (Homo sapiens), O95255 (parent)
chain: MAAPAEPCAGQGVWNQTEPEPAATSLLSLCFLRTAGVWVPPMYLWVLGPIYLLFIHHHGRGYLRMSPLFKAKMVLGFALIVLCTSSVAVALWKIQQGTPEAPEFLIHPTVWLTTMSFAVFLIHTERKKGVQSSGVLFGYWLLCFVLPATNAAQQASGAGFQSDPVRHLSTYLCLSLVVAQFVLSCLADQPPFFPEDPQQSNPCPETGAAFPSKATFWWVSGLVWRGYRRPLRPKDLWSLGRENSSEELVSRLEKEWMRNRSAARRHNKAIAFKRKGGSGMKAPETEPFLRQEGSQWRPLLKAIWQVFHSTFLLGTLSLIISDVFRFTVPKLLSLFLEFIGDPKPPAWKGYLLAVLMFLSACLQTLFEQQNMYRLKVLQMRLRSAITGLVYRKVLALSSGSRKASAVGDVVNLVSVDVQRLTESVLYLNGLWLPLVWIVVCFVYLWQLLGPSALTAIAVFLSLLPLNFFISKKRNHHQEEQMRQKDSRARLTSSILRNSKTIKFHGWEGAFLDRVLGIRGQELGALRTSGLLFSVSLVSFQVSTFLVALVVFAVHTLVAENAMNAEKAFVTLTVLNILNKAQAFLPFSIHSLVQARVSFDRLVTFLCLEEVDPGVVDSSSSGSAAGKDCITIHSATFAWSQESPPCLHRINLTVPQGCLLAVVGPVGAGKSSLLSALLGELSKVEGFVSIEGAVAYVPQEAWVQNTSVVENVCFGQELDPPWLERVLEACALQPDVDSFPEGIHTSIGEQGMNLSGGQKQRLSLARAVYRKAAVYLLDDPLAALDAHVGQHVFNQVIGPGGLLQGTTRILVTHALHILPQADWIIVLANGAIAEMGSYQELLQRKGALMCLLDQARQPGDRGEGETEPGTSTKDPRGTSAGRRPELRRERSIKSVPEKDRTTSEAQTEVPLDDPDRAGWPAGKDSIQYGRVKATVHLAYLRAVGTPLCLYALFLFLCQQVASFCRGYWLSLWADDPAVGGQQTQAALRGGIFGLLGCLQAIGLFASMAAVLLGGARASRLLFQRLLWDVVRSPISFFERTPIGHLLNRFSKETDTVDVDIPDKLRSLLMYAFGLLEVSLVVAVATPLATVAILPLFLLYAGFQSLYVVSSCQLRRLESASYSSVCSHMAETFQGSTVVRAFRTQAPFVAQNNARVDESQRISFPRLVADRWLAANVELLGNGLVFAAATCAVLSKAHLSAGLVGFSVSAALQVTQTLQWVVRNWTDLENSIVSVERMQDYAWTPKEAPWRLPTCAAQPPWPQGGQIEFRDFGLRYRPELPLAVQGVSFKIHAGEKVGIVGRTGAGKSSLASGLLRLQEAAEGGIWIDGVPIAHVGLHTLRSRISIIPQDPILFPGSLRMNLDLLQEHSDEAIWAALETVQLKALVASLPGQLQYKCADRGEDLSVGQKQLLCLARALLRKTQILILDEATAAVDPGTELQMQAMLGSWFAQCTVLLIAHRLRSVMDCARVLVMDKGQVAESGSPAQLLAQKGLFYRLAQESGLV
B4: Zinc finger protein GLIS2 (Homo sapiens), Q9BZE0 (parent)
chain: MHSLDEPLDLKLSITKLRAAREKRERTLGVVRPRALHRELGLVDDSPTPGSPGSPPSGFLLNSKFPEKVEGRFSAAPLVDLSLSPPSGLDSPNGSSSLSPERQGNGDLPPVPSASDFQPLRYLDGVPSSFQFFLPLGSGGALHLPASSFLTPPKDKCLSPDLPLPKQLVCRWAKCNQLFELLQDLVDHVNDYHVKPEKDAGYCCHWEGCARHGRGFNARYKMLIHIRTHTNEKPHRCPTCSKSFSRLENLKIHNRSHTGEKPYVCPYEGCNKRYSNSSDRFKHTRTHYVDKPYYCKMPGCHKRYTDPSSLRKHIKAHGHFVSHEQQELLQLRPPPKPPLPAPDGGPYVSGAQIIIPNPAALFGGPGLPGLPLPLAPGPLDLSALACGNGGGSGGGGGMGPGLPGPVLPLNLAKNPLLPSPFGAGGLGLPVVSLLAGAAGGKAEGEKGRGSVPTRALGMEGHKTPLERTESSCSRPSPDGLPLLPGTVLDLSTGVNSAASSPEALAPGWVVIPPGSVLLKPAVVN
B5: Microphthalmia-associated transcription factor (Homo sapiens), O75030 (parent)
chain: MQSESGIVPDFEVGEEFHEEPKTYYELKSQPLKSSSSAEHPGASKPPISSSSMTSRILLRQQLMREQMQEQERREQQQKLQAAQFMQQRVPVSQTPAINVSVPTTLPSATQVPMEVLKVQTHLENPTKYHIQQAQRQQVKQYLSTTLANKHANQVLSLPCPNQPGDHVMPPVPGSSAPNSPMAMLTLNSNCEKEGFYKFEEQNRAESECPGMNTHSRASCMQMDDVIDDIISLESSYNEEILGLMDPALQMANTLPVSGNLIDLYGNQGLPPPGLTISNSCPANLPNIKRELTACIFPTESEARALAKERQKKDNHNLIERRRRFNINDRIKELGTLIPKSNDPDMRWNKGTILKASVDYIRKLQREQQRAKELENRQKKLEHANRHLLLRIQELEMQARAHGLSLIPSTGLCSPDLVNRIIKQEPVLENCSQDLLQHHADLTCTTTLDLTDGTITFNNNLGTGTEANQAYSVPTKMGSKLEDILMDDTLSPVGVTDPLLSSVSPGASKTSSRRSSMSMEETEHTC

Variants of: B1
Conditions: with nedd4_human NEDD4, P46934
Chain of nedd4_human NEDD4, P46934 (P46934 whole entry): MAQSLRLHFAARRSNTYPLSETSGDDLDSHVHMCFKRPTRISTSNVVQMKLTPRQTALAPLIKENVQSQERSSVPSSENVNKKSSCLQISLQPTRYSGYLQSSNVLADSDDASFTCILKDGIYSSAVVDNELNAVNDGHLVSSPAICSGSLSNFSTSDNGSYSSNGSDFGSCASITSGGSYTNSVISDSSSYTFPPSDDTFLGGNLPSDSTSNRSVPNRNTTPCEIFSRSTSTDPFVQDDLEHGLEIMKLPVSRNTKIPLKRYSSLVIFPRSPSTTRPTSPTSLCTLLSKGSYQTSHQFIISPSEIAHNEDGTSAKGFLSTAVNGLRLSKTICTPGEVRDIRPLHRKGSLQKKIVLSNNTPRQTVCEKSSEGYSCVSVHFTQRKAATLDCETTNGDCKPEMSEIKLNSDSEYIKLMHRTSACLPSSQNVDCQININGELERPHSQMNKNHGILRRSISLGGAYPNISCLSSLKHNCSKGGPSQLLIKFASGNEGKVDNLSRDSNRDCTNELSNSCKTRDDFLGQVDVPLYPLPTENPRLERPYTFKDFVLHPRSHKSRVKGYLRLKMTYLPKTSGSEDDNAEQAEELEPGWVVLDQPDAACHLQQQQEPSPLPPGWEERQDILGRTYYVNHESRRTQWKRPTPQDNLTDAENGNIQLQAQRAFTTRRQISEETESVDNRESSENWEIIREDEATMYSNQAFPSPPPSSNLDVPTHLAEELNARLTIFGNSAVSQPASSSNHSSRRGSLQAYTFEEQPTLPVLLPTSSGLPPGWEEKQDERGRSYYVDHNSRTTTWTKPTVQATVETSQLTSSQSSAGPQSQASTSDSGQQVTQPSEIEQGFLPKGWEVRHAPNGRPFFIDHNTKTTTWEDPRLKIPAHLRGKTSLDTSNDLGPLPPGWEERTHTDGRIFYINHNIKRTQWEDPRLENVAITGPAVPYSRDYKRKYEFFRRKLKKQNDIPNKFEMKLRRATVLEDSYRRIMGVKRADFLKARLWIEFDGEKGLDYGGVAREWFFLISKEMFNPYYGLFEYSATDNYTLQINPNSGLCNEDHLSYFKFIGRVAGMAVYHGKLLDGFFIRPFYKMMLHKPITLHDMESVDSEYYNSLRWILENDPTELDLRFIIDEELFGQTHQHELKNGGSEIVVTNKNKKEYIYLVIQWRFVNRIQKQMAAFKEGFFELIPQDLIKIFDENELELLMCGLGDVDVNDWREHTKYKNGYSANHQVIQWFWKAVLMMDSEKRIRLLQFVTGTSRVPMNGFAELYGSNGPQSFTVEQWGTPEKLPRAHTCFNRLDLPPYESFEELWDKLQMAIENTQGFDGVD

Variant	effect of a mutation on the interaction
P618R	decreasing interaction strength

Variants of: B1
Conditions: with wwtr1_human WWTR1, Q9GZV5
Chain of wwtr1_human WWTR1, Q9GZV5 (Q9GZV5 whole entry): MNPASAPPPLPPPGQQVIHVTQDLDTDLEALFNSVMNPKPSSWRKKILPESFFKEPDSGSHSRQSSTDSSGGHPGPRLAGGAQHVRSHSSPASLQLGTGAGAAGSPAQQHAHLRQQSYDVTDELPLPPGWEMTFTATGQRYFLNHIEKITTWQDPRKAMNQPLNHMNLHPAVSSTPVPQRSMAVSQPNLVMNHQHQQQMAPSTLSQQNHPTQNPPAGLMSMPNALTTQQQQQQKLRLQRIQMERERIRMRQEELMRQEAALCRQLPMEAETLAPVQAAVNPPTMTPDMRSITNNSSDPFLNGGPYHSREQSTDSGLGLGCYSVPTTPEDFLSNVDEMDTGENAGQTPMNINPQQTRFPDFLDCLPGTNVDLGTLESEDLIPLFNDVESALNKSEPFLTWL

Variant	effect of a mutation on the interaction
P618R	decreasing interaction strength

Variants of: B2
Conditions: with src_human SRC

Variant	effect of a mutation on the interaction
P99S	decreasing interaction strength

Variants of: B3
Conditions: with mlp3b_human MAP1LC3B

Variant	effect of a mutation on the interaction
L1226I	decreasing interaction strength

Variants of: B3
Conditions: with mlp3a_human MAP1LC3A

Variant	effect of a mutation on the interaction
L1226I	decreasing interaction strength

Variants of: B4
Conditions: with ptbp1_human PTBP1, P26599
Chain of ptbp1_human PTBP1, P26599 (P26599 whole entry): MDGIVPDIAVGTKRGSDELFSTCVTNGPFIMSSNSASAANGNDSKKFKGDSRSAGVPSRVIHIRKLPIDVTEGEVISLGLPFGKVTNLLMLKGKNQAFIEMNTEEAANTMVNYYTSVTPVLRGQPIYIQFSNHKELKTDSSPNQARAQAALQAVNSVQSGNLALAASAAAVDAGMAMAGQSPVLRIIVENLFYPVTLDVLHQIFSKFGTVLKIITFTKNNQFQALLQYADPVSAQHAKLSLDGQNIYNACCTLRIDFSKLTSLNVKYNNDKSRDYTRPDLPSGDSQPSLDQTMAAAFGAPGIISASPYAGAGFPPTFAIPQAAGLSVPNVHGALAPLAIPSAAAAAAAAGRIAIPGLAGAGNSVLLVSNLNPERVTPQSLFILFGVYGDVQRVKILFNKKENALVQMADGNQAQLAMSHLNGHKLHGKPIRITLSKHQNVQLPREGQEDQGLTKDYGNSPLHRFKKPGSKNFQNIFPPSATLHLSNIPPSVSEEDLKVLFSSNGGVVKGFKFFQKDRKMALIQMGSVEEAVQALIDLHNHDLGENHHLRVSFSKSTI

Variant	effect of a mutation on the interaction
P420L	decreasing interaction strength

Variants of: B5
Conditions: with clh1_human CLTC

Variant	effect of a mutation on the interaction
Y265C	with no effect
